Consider five molecules from PMC3384344 (Nucleic Acids Research, 2012).

The target in data set [1] is DNA polymerase III α subunit, wild-type full-length (E. coli) (UniProt P10443). As to the kind of experiment: other fluorescence titration.
Data set [2] addresses T1, DNA polymerase III α subunit truncation α1–280 (E. coli, UniProt P10443 1-280). As to the kind of experiment: cell-based or functional assay.
Data set [3] deals with DNA polymerase III α subunit truncation α917–1160 (E. coli, UniProt P10443 917-1160). Kind of data set: other fluorescence titration.
Sequence of DNA polymerase III α subunit truncation α917–1160 (P10443 917-1160): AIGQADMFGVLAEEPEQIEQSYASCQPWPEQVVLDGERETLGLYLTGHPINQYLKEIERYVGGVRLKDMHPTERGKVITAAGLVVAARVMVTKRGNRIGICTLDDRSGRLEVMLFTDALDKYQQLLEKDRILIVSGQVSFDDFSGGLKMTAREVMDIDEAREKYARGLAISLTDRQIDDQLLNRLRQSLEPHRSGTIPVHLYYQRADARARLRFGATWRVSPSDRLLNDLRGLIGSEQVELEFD
Data set [4] addresses T2, DNA polymerase III α subunit, wild-type full-length (E. coli, UniProt P10443 1-1160). As to the kind of experiment: other fluorescence titration.
For data set [5], the target named is T1, DNA polymerase III α subunit truncation …. Kind of data set: other fluorescence titration.
Data set [6] concerns the target DNA polymerase III α subunit truncation α1–975 (E. coli, UniProt P10443 1-975). Kind of data set: other fluorescence titration.
For data set [7], the target named is DNA polymerase III α subunit truncation α1–956 (E. coli, UniProt P10443 1-956). Kind of data set: other fluorescence titration.
Sequence of DNA polymerase III α subunit truncation α1–956 (P10443 1-956): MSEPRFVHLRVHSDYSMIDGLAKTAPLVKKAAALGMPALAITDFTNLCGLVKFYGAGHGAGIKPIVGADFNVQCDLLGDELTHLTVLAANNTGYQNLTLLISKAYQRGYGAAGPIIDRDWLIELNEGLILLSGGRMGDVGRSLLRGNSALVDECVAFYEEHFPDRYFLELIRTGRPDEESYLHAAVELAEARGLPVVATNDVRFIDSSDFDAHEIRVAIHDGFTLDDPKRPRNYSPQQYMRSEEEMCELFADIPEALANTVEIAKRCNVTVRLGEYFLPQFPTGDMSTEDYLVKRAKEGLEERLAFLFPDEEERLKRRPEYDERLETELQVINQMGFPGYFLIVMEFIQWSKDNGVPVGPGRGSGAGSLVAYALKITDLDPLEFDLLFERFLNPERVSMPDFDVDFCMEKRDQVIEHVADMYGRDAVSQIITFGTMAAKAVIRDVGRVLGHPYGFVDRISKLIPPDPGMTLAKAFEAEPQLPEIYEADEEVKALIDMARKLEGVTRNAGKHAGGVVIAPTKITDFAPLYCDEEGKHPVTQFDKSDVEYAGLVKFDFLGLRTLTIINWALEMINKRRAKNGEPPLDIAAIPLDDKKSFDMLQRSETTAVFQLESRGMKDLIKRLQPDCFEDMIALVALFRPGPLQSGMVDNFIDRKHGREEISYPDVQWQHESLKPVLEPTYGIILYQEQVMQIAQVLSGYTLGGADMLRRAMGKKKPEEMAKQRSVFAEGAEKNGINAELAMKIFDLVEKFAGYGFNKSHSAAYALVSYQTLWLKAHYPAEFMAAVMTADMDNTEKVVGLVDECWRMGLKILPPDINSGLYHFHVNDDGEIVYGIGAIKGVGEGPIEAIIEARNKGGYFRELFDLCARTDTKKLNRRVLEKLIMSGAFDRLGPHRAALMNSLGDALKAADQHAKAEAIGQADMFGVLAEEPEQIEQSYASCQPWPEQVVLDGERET
In data set [8] the target is T2, DNA polymerase III α subunit, wild-type …. As to the kind of experiment: other fluorescence titration. The source holds these as a separate data set.
The data set “cross-linking” concerns the molecule itself. Kind of data set: cross-linking.

Where a chain is given by its changes, count along the chain named. Names and notes keep the numbering of the source. Read-outs that look alike come from different tables or passages of the source.

T1 sequence (P10443 1-280): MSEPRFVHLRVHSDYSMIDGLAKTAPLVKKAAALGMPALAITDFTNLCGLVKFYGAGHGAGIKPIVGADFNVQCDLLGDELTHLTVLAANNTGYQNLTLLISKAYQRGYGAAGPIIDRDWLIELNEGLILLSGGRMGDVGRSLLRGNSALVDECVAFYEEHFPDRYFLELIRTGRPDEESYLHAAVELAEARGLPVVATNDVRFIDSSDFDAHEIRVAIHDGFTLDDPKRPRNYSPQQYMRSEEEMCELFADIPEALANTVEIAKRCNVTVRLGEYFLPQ
T2 sequence (P10443 whole entry, the tested form may be a part): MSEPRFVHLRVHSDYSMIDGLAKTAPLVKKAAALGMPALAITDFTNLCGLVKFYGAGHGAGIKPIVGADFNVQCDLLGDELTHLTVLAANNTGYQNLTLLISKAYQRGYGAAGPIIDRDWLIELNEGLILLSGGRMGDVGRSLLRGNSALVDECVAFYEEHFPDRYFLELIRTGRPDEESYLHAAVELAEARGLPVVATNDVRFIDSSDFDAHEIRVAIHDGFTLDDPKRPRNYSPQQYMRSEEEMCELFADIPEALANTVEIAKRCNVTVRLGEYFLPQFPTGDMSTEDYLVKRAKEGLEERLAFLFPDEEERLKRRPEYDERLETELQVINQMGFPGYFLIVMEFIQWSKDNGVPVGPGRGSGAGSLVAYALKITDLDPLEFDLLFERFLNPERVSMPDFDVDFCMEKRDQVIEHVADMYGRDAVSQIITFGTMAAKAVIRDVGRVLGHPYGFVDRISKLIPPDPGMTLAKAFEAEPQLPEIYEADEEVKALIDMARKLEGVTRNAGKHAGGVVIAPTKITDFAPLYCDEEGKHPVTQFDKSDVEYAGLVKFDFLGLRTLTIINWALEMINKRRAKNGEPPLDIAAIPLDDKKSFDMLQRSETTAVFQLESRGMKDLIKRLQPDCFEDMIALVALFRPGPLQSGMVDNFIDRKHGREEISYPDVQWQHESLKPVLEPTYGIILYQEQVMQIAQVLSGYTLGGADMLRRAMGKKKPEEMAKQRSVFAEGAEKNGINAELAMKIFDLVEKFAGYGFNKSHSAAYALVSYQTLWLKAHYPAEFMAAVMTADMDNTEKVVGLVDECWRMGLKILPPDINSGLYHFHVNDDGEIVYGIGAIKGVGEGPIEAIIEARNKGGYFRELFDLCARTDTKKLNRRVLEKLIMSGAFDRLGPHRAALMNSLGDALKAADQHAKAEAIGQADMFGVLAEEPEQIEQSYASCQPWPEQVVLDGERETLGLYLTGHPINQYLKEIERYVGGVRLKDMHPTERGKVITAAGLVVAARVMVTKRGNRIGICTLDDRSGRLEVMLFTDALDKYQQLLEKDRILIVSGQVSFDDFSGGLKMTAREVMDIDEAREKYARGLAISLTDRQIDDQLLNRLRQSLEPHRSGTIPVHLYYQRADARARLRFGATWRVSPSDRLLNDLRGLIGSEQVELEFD
Sequence of DNA polymerase III α subunit truncation α1–975 (P10443 1-975): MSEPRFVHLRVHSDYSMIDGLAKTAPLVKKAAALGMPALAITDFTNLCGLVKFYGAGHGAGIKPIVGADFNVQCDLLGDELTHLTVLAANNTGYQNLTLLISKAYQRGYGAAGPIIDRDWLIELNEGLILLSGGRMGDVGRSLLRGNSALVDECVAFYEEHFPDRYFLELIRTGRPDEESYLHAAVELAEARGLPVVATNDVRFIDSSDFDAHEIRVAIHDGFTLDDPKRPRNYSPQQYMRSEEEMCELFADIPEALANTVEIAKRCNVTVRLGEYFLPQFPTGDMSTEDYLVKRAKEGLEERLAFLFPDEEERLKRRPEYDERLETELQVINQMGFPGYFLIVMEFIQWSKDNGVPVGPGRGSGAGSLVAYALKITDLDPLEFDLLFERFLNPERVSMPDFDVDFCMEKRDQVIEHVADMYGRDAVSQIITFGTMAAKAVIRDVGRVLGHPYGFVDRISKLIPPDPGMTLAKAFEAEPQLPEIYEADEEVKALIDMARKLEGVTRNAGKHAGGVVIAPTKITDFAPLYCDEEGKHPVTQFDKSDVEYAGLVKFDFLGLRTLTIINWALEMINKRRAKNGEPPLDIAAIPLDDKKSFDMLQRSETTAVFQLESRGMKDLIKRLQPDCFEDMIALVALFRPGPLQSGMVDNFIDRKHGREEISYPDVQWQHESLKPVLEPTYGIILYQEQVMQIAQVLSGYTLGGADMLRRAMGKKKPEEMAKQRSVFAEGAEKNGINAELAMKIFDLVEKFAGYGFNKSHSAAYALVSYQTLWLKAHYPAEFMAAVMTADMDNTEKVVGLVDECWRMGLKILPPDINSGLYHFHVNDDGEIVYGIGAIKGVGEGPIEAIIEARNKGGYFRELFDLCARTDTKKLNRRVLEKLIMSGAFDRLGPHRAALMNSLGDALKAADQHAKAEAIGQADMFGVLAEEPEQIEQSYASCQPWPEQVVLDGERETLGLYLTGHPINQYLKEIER
Sequence of DNA polymerase III α subunit, wild-type full-length (E. coli) (P10443 whole entry, the tested form may be a part): as the sequence (P10443 whole entry, the tested form may be a part) above

Turning to “1:1 mixture of UmuD-S60A and UmuD′-S60A (from UniProt P0AG11) (complex)”, in [1], the Kd (commonly a measure of binding affinity in units of concentration) is 4.6 µM.

B1: UmuD, wild-type full-length (homodimer UmuD2) (natural protein)
chain: MLFIKPADLREIVTFPLFSDLVQCGFPSPAADYVEQRIDLNQLLIQHPSATYFVKASGDSMIDGGISDGDLLIVDSAITASHGDIVIAAVDGEFTVKKLQLRPTVQLIPMNSAYSPITISSEDTLDVFGVVIHVVKAMR
With B1, the “RecA/ssDNA-facilitated UmuD cleavage at 30°C with 0–40 µM α1–280” value in data set [2] is ~4 fold more α1–280 than wild-type α. Besides, the equilibrium dissociation constant (Kd) in [3] came out at 13.9 ± 5.1 µM; in data set [4] it was 1.1 ± 0.6 µM; in [5] it was 7.3 ± 1.4 µM; in data set [6] it was 3.1 ± 1 µM; in data set [7] it was 14.7 ± 1.9 µM; in [8] it was 21.7 ± 11.7 µM.

B2: UmuD-S60A, non-cleavable full-length UmuD variant (natural protein)
chain: B1 chain with S60A
Consider B2, for which the dissociation constant (Kd) in data set [3] came out at 0.7 ± 0.3 µM; in [4], 10.6 ± 2.9 µM; in data set [5] it was 10.3 ± 4.3 µM. The binding result in the data set “cross-linking” was “binds”.

B3: UmuD3A (UmuD containing the triple mutation T14A, L17A and F18A) (natural protein)
chain: B1 chain with T14A, L17A, F18A
For the molecule B3, the Kd is 3.4 ± 1 µM in [3], 8.7 ± 1.5 µM in data set [4] and 9.3 ± 3.2 µM in data set [5].

B4: UmuD′, cleaved form of UmuD (homodimer UmuD′2) (natural protein)
chain: GFPSPAADYVEQRIDLNQLLIQHPSATYFVKASGDSMIDGGISDGDLLIVDSAITASHGDIVIAAVDGEFTVKKLQLRPTVQLIPMNSAYSPITISSEDTLDVFGVVIHVVKAMR
Take B4: the Kd in data set [3] was determined as 3.8 ± 0.9 µM; in [4], 10.9 ± 1.6 µM; in data set [5] it was 8.6 ± 1 µM.
